These results are taken from the Human Domainome abundance scans (Beltran et al. 2025).

The labels stand for the following.
B1: SAM and SH3 domain-containing protein 1, residues 630 to 700; numbered along this chain, O94885 (parent)
chain: GRPPQPKSVEDLLDRINLKEHMPTFLFNGYEDLDTFKLLEEEDLDELNIRDPEHRAVLLTAVELLQEYDSN

± gives the uncertainty stated by the source.

In this data set the parent is B1. Nature of the data set: abundance fitness (aPCA) (normalised: wild type 0, dead -1); higher = more abundant; growth selection in yeast, the domain comes from the species named. Conditions: Homo sapiens.
L58D: the abundance fitness is -0.347 ± 0.08. To K7L belongs -0.323 ± 0.041; to K7F, -0.5 ± 0.053. Consider K7W, for which the abundance fitness is -0.873 ± 0.12. Turning to K7E, the abundance fitness was -0.002 ± 0.069. As for K7P, the abundance fitness is -0.679 ± 0.063. Regarding P52F, the abundance fitness was -1.04 ± 0.11. To P52G belongs -0.71 ± 0.057; to P52W, -0.782 ± 0.071; to D14Q, -0.269 ± 0.07.

With D14M, the abundance fitness was -0.34 ± 0.066. Regarding D14P, the abundance fitness is -0.834 ± 0.086.

As to D14I, the abundance fitness was -0.293 ± 0.054. As for D14V, the abundance fitness is -0.287 ± 0.047. Under S70T stands 0.422 ± 0.28. To S70F belongs -0.508 ± 0.23; to F25D, -0.672 ± 0.093; to F25T, -0.59 ± 0.061. For the variant F25A, the abundance fitness was -0.837 ± 0.072. Under F25H stands -0.924 ± 0.11; under F25M, -0.676 ± 0.073.

As to L44K, the abundance fitness is -0.746 ± 0.076.

On to L44V, for which the abundance fitness is -0.791 ± 0.059. Under L44Y stands -0.755 ± 0.085; under L44M, -0.702 ± 0.073; under K37S, -0.337 ± 0.045.

As for K37T, the abundance fitness was -0.615 ± 0.062.

With K37Y, the abundance fitness is -1.11 ± 0.12. Under K37Q stands -0.478 ± 0.073; under K37R, -0.211 ± 0.046. For the variant K37A, the abundance fitness was -0.226 ± 0.047. To K37I belongs -0.848 ± 0.093; to E53F, -0.673 ± 0.079; to E53C, -0.23 ± 0.06. To E53R belongs -0.266 ± 0.045; to R50Q, 0.039 ± 0.048; to R50G, -0.371 ± 0.05.

For R50K, the abundance fitness is 0.032 ± 0.058. To R50Y belongs -0.012 ± 0.047; to R50L, 0.091 ± 0.035. To R50F belongs -0.071 ± 0.049; to R50E, -0.146 ± 0.057; to A61Q, -0.036 ± 0.057. Under A61S stands -0.225 ± 0.042; under A61V, -0.644 ± 0.063; under E10C, -0.463 ± 0.071. As to E10I, the abundance fitness is -0.446 ± 0.056. With E10K, the abundance fitness is -0.407 ± 0.066. With E10W, the abundance fitness was -0.511 ± 0.086. To E10V belongs -0.413 ± 0.053. On to Q5T, for which the abundance fitness was -0.365 ± 0.057. To Q5D belongs -0.783 ± 0.12. Turning to Q5S, the abundance fitness is -0.334 ± 0.047.

As to Q5I, the abundance fitness was -0.02 ± 0.048.

On to Q5E, for which the abundance fitness was -0.481 ± 0.098. Under Q5Y stands 0.202 ± 0.049. To Q5L belongs -0.345 ± 0.043; to Q5P, -0.276 ± 0.055. Under T35R stands 0.135 ± 0.037; under T35F, -0.911 ± 0.099; under T35N, -0.159 ± 0.049. Turning to P3L, the abundance fitness is -0.036 ± 0.036.

For the variant P3W, the abundance fitness is -0.132 ± 0.062.

In the case of P3Q, the abundance fitness was -0.118 ± 0.051.

Take P3T: the abundance fitness is -0.014 ± 0.041.

Regarding P3C, the abundance fitness is -0.073 ± 0.052. As for D34T, the abundance fitness was -0.415 ± 0.043. For the variant D34I, the abundance fitness was -0.793 ± 0.067. To D34K belongs -0.291 ± 0.054; to D34M, -0.518 ± 0.058.

For the variant D34Q, the abundance fitness was -0.116 ± 0.048. To P23A belongs 0.113 ± 0.043. To P23L belongs -0.056 ± 0.037; to P23K, 0.043 ± 0.053. To P23V belongs -0.433 ± 0.049; to P23Y, -0.271 ± 0.052.

Consider A56V, for which the abundance fitness was -0.493 ± 0.048. Under A56L stands -0.334 ± 0.035; under A56P, -0.772 ± 0.053. To A56S belongs 0.011 ± 0.031. To A56C belongs -0.272 ± 0.046; to S8M, -1.03 ± 0.14; to S8Q, -0.55 ± 0.1. Regarding S8N, the abundance fitness is -0.305 ± 0.053. For S8L, the abundance fitness was -0.818 ± 0.067. Under S8R stands -0.836 ± 0.082; under S8A, -0.889 ± 0.093. Regarding S8G, the abundance fitness was -0.536 ± 0.076.

Turning to G1M, the abundance fitness was 0.013 ± 0.098.

Take G1Q: the abundance fitness is 0.109 ± 0.16.

With G1I, the abundance fitness is 0.047 ± 0.082.

In the case of G1A, the abundance fitness was -0.064 ± 0.055. Under L65H stands -0.853 ± 0.083; under L65T, -0.767 ± 0.063; under L65W, -0.959 ± 0.097. For L65F, the abundance fitness was -0.696 ± 0.072. On to L65Y, for which the abundance fitness is -0.961 ± 0.093. With T60S, the abundance fitness was 0.227 ± 0.032. To T60N belongs 0.348 ± 0.038; to T60Q, 0.266 ± 0.043; to T60W, -0.378 ± 0.056. To T60C belongs -0.293 ± 0.049; to T60H, 0.302 ± 0.041; to T60E, 0.398 ± 0.052. To T60R belongs 0.237 ± 0.032; to P4M, 0.078 ± 0.059; to P4H, -0.01 ± 0.054.

In the case of P4N, the abundance fitness was found to be 0.09 ± 0.05. Under P4S stands -0.03 ± 0.045. To P4Y belongs 0.067 ± 0.049; to E42L, -0.6 ± 0.045; to E42W, -0.618 ± 0.08. To E42A belongs 0.104 ± 0.04. On to E42T, for which the abundance fitness was determined as 0.035 ± 0.039. For E42M, the abundance fitness is -0.476 ± 0.066. Turning to F27S, the abundance fitness came out at 0.406 ± 0.032. In the case of F27L, the abundance fitness is 0.346 ± 0.031. To F27V belongs 0.235 ± 0.037; to E31G, 0.313 ± 0.035. Under E31S stands 0.196 ± 0.032; under E31M, -0.158 ± 0.046. Regarding E31W, the abundance fitness was -0.248 ± 0.049. To E31V belongs -0.003 ± 0.035; to E31L, -0.37 ± 0.036. To E31A belongs 0.207 ± 0.033. For the variant E31R, the abundance fitness is 0.127 ± 0.032.

On to I16F, for which the abundance fitness is -0.266 ± 0.064. Under I16Q stands -0.682 ± 0.078; under I16Y, -0.009 ± 0.058.

Consider I16E, for which the abundance fitness was -0.595 ± 0.1. To I16C belongs -0.067 ± 0.063; to I16P, -0.994 ± 0.099; to I16W, -0.611 ± 0.088. Under I16G stands -0.674 ± 0.085; under L59K, -0.206 ± 0.057. To L59M belongs 0.001 ± 0.048; to L59Q, -0.478 ± 0.071; to L59S, -0.514 ± 0.043. For L59W, the abundance fitness is -0.822 ± 0.079. Take L59D: the abundance fitness was -0.577 ± 0.067.

For the variant L12I, the abundance fitness is -0.328 ± 0.067. In the case of L12D, the abundance fitness is -0.784 ± 0.089. On to L12N, for which the abundance fitness is -0.794 ± 0.088.

Consider L13N, for which the abundance fitness was -0.802 ± 0.091.

Regarding L13E, the abundance fitness was -0.572 ± 0.081. To L13Q belongs -0.447 ± 0.081. To L13I belongs -1.04 ± 0.11; to L13S, -0.887 ± 0.068; to L13H, -0.801 ± 0.096. Under L13V stands -1 ± 0.085; under D11L, -0.9 ± 0.057; under D45G, -0.812 ± 0.077. On to D45H, for which the abundance fitness was -0.538 ± 0.053.

With D45T, the abundance fitness is -0.38 ± 0.042. D45K: the abundance fitness is -0.135 ± 0.048.

In the case of D45E, the abundance fitness is -0.276 ± 0.06.

Y30N: the abundance fitness was -0.833 ± 0.08. To Y30D belongs -0.705 ± 0.077. To Y30R belongs -0.891 ± 0.068; to Q66E, -0.623 ± 0.088. For Q66D, the abundance fitness was -0.49 ± 0.064. To Q66C belongs -0.448 ± 0.064. To Q66M belongs -0.422 ± 0.054. To Q66V belongs -0.587 ± 0.054.

On to V62K, for which the abundance fitness was determined as 0.005 ± 0.059.

For V62Y, the abundance fitness is -0.82 ± 0.093.

For V62D, the abundance fitness is -0.607 ± 0.11.
